Common to all, as to assay: Kinase profiling (radiometric filter-binding)
Common to all, as to assay type: biochemical

The target in data set [1] is T1, IKK (Homo sapiens, UniProt O14920).
T1 sequence (O14920 1-756): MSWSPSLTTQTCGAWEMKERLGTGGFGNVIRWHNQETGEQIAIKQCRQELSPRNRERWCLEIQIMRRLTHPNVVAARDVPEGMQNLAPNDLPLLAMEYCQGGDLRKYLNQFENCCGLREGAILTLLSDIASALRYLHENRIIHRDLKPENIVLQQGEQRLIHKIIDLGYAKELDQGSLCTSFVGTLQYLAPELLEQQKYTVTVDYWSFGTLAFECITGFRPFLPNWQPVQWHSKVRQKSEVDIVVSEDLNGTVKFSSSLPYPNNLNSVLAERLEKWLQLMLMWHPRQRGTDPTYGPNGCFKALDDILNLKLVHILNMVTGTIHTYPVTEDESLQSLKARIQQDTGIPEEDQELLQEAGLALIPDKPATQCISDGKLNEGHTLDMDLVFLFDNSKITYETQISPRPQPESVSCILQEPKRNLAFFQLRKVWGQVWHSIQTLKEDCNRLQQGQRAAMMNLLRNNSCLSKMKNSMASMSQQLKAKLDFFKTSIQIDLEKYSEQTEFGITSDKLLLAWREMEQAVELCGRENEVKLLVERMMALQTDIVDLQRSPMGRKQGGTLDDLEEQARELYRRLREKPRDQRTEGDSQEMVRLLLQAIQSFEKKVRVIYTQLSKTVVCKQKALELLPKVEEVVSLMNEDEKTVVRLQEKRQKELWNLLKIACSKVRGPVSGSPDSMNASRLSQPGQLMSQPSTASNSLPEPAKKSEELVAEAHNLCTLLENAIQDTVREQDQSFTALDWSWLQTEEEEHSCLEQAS
The settings on record: first of two IKK lines (Greek letter lost), 1 µM inhibitor, read-out: Residual activity, %. In a few lines: (§1)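 Percent activity retained relative to the no-inhibitor reaction is given. Assays used human enzymes, radiolabel filter capture, ATP concentrations not exceeding the respective KM, and a final inhibitor level of 1 µM.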

In data set [2] the target is T2, LKB1 (Homo sapiens, UniProt Q15831).
T2 sequence (Q15831 1-433): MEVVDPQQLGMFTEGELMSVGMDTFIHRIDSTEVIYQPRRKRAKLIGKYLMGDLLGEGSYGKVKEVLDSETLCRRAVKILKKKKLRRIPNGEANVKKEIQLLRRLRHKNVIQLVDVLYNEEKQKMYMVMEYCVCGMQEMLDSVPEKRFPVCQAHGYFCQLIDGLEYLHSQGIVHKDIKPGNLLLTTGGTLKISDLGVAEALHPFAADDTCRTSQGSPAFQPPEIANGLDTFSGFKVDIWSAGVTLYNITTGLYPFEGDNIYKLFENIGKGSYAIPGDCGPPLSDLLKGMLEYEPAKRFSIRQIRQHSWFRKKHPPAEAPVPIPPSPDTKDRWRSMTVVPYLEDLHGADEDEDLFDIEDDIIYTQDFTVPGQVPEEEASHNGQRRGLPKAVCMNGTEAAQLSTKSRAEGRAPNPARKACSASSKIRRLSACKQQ
T2 sequence (Q7RTN6 1-431 partner): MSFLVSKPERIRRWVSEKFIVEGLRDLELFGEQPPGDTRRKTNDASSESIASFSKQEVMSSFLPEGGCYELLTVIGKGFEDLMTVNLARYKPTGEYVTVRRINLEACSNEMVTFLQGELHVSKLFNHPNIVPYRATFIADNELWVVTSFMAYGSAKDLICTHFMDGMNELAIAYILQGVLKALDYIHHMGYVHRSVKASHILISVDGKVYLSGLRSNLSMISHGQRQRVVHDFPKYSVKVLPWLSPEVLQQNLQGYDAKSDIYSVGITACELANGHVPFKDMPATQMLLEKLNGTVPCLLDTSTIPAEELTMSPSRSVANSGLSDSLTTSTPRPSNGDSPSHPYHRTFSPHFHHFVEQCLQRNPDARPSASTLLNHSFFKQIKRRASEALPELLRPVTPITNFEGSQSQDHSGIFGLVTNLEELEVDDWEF
T2 sequence (Q9Y376 1-341 partner): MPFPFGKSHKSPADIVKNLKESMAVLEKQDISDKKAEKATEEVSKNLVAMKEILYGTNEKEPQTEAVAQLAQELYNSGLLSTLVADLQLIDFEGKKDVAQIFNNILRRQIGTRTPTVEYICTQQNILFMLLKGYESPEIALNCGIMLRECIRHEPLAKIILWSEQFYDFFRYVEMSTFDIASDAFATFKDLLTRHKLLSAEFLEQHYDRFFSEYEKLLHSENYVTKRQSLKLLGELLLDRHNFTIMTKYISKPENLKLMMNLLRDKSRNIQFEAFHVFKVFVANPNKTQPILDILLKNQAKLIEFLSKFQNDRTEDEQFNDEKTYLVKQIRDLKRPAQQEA
To be noted: LKB1, 1 µM inhibitor; read-out: Residual activity, %. In a few lines: as §1

Data set [3] has as its target SmMLCK (Homo sapiens, UniProt Q15746). To be noted: 1 µM inhibitor, read-out: Residual activity, %. In a few lines: as §1

Square brackets hold non-standard residues; d marks the D form. Peptide text beside a SMILES is read from it. * marks the point of attachment. X3 = O=C(CCCCCNCc1nc2c(sc3cc(Br)cnc32)c(=O)[nH]1)*

Chain of SmMLCK (Q15746 923-1914): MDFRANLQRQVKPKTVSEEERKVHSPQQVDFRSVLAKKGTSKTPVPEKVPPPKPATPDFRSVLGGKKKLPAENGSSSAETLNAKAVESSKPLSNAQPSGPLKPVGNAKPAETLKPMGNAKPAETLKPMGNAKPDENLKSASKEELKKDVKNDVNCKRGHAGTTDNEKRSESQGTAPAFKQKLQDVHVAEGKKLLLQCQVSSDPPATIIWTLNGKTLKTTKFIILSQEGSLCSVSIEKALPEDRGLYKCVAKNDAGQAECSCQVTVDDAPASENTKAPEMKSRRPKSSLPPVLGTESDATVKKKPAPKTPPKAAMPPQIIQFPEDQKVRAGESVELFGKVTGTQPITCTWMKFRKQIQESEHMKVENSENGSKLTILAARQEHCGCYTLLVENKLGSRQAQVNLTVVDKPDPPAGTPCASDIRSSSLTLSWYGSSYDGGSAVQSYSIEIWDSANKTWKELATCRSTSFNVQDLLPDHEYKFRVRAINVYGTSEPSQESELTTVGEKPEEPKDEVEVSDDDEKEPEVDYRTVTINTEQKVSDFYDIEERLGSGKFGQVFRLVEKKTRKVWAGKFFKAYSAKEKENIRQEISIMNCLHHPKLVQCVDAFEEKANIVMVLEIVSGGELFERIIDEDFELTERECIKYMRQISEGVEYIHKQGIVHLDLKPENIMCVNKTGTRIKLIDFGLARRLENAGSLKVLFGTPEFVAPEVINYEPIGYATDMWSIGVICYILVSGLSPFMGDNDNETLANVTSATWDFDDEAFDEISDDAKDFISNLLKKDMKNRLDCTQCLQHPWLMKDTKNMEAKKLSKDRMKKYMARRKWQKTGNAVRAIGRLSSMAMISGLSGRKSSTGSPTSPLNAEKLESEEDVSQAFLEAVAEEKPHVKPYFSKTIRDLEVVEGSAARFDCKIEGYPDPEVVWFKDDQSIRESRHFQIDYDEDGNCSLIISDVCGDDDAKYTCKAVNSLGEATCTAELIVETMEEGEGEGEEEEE

With `N=C(N)NCCC[C@@H](NC(=O)CCCCCNC(=O)Cn1cnc2c(I)c(I)c(I)c(I)c21)C(=O)N[C@H](CCCNC(=N)N)C(=O)N[C@H](CCCNC(=N)N)C(=O)N[C@H](CCCNC(=N)N)C(=O)N[C@H](CCCNC(=N)N)C(=O)N[C@H](CCCNC(=N)N)C(=O)N[C@H](CCCCN)C(N)=O` [ARC-3125, TIBI-CH2-C(=O)-Ahx-(D-Arg)6-D-Lys-NH2], the results for the remaining activity at 1 µM in data set [1], in data set [2] and in data set [3] were 80 ± 1%, 49 ± 28% and 66 ± 1%, respectively.

As for `N=C(N)NCCC[C@@H](NC(=O)CCCCCNCc1nc2c(sc3cc(Br)cnc32)c(=O)[nH]1)C(=O)N[C@H](CCCNC(=N)N)C(=O)N[C@H](CCCNC(=N)N)C(=O)N[C@H](CCCNC(=N)N)C(=O)N[C@H](CCCNC(=N)N)C(=O)N[C@H](CCCNC(=N)N)C(=O)N[C@H](CCCCN)C(N)=O` [ARC-3126, BPTP-Ahx-(D-Arg)6-D-Lys-NH2] (X3-[dR][dR][dR][dR][dR][dR][dK]-NH2), the remaining activity at 1 µM came out at 104 ± 2% in data set [1], 114 ± 11% in data set [2] and 116 ± 39% in data set [3].

In the case of `N=C(N)NCCC[C@@H](NC(=O)CNC(=O)[C@@H](CCCNC(=N)N)NC(=O)[C@@H](CCCNC(=N)N)NC(=O)CCCCCCCNCc1nc2c(sc3cc(Br)cnc32)c(=O)[nH]1)C(=O)N[C@H](CCCCN)C(N)=O` [Compound 1, BPTP-Aoc-(D-Arg)2-Gly-D-Arg-D-Lys-NH2], the remaining activity at 1 µM in data set [1] is 97%; in data set [2], 107 ± 1%; in data set [3], 98 ± 5%.

In the case of `N=C(N)NCCC[C@@H](NC(=O)CNC(=O)[C@@H](CCCNC(=N)N)NC(=O)[C@@H](CCCNC(=N)N)NC(=O)CCCCCCCNCc1nc2c(sc3ccc(Br)cc32)c(=O)[nH]1)C(=O)N[C@H](CCCCN)C(N)=O` [Compound 2, BBTP-Aoc-(D-Arg)2-Gly-D-Arg-D-Lys-NH2], the values for the remaining activity at 1 µM in data set [1], in data set [2] and in data set [3] were 100 ± 11%, 118 ± 4% and 98 ± 9%, respectively.

Turning to `N=C(N)NCCC[C@@H](NC(=O)CNC(=O)[C@@H](CCCNC(=N)N)NC(=O)[C@@H](CCCNC(=N)N)NC(=O)Cn1cc(CNCc2nc3c(sc4ccc(Br)cc43)c(=O)[nH]2)nn1)C(=O)N[C@H](CCCCN)C(N)=O` [Compound 3, BBTP-Amt-(D-Arg)2-Gly-D-Arg-D-Lys-NH2], the remaining activity at 1 µM was found to be 90 ± 6% in data set [1], 115 ± 13% in data set [2] and 94% in data set [3].

Source of the values: article PMC8307404, “Crystal Structure-Guided Design of Bisubstrate Inhibitors and Photoluminescent Probes for Protein Kinases of the PIM Family” (Molecules, 2021).
